Measured values taken from US20160250341A1 (Molecular Partners, published 2016).
Where a chain is given by its changes, count along the chain named.

B1: DARPin #29 (designed binder)
chain: MRGSHHHHHHGSDLDKKLLEAARAGQDDEVRILMANGADVNAKDERGTTPLHLAAVYGHLEIVEVLLKAGADVNAKNETGYTPLHLADSSGHLEIVEVLLKHGADVNAQDKSGKTPADLAADAGHEDIAEVLQKLN
B2: DARPin #27 (designed binder)
chain: B1 chain with H102A
B3: DARPin #28 (designed binder)
chain: B1 chain with G103S
B4: DARPin #30 (designed binder)
chain: B1 chain with H102A, G103S
B5: DARPin #20 (designed binder)
chain: MRGSHHHHHHGSDLDKKLLEAARAGQDDEVRILMANGADVNAKDYFSHTPLHLAARNGHLKIVEVLLKAGADVNAKDFAGKTPLHLAANDGHLEIVEVLLKHGADVNAQDIFGKTPADIAADAGHEDIAEVLQKLN
B6: DARPin #19 (designed binder)
chain: B5 chain with D15G
B7: DARPin #21 (designed binder)
chain: B5 chain with K61E
B8: DARPin #22 (designed binder)
chain: B5 chain with D15G, K61E
B9: DARPin #43 (designed binder)
chain: B5 chain with D15G, M34L, A35K, N36A
B10: DARPin #44 (designed binder)
chain: B5 chain with D15G, I32E, M34L, A35K, N36A
B11: DARPin #45 (designed binder)
chain: B5 chain with D15G, M34L, A35K, N36A, H102A
B12: DARPin #46 (designed binder)
chain: B5 chain with D15G, I32E, M34L, A35K, N36A, H102A
B13: DARPin #47 (designed binder)
chain: B5 chain with M34L, A35K, N36A, H102A
B14: DARPin #48 (designed binder)
chain: B5 chain with I32E, M34L, A35K, N36A, H102A

Biological target: T1, human serum albumin (human, UniProt P02768 25-609)
T1 construct: also called HSA
Assay: SPR (ProteOn), DARPin captured by anti-RGS-His antibody, albumin injected
Description: (§1) DARPins with binding specificity for xSA were immobilized in a flow cell via their His-tag to coated α-RGS-His antibody (Qiagen, cat. no. 34650), and the interaction of human, cynomolgus monkey (cyno), mouse, rat, rabbit and dog serum albumin with the immobilized DARPins were analyzed.
(§2) SPR was measured using a ProteOn instrument (BioRad) and measurement was performed according standard procedures known to the person skilled in the art. The running buffer was PBS, pH 7.4, containing 0.01% Tween 20®. Anti-RGS-His antibody was covalently immobilized on a GLC chip (BioRad) to a level of about 2000 resonance units (RU). Immobilization of DARPins on the antibody coated chip was then performed by injecting 150 μl of 1 μM DARPin solution in 300 s (flow rate=30 μl/min). The interaction with serum albumin of the different species was then measured by injecting in 60 sec a volume of 100 μl running buffer (PBS containing 0.01% Tween®) containing a distinct serum albumin at a concentration of 400, 200, 100, 50 nM (on-rate measurement), followed by a running buffer flow for 10 to 30 minutes (flow rate=100 μl/min) (off-rate measurement). The signals (i.e. resonance unit (RU) values) of an uncoated reference cell and a reference injection (i.e. injection of running buffer only) were subtracted from the RU traces obtained after injection of the serum albumins (double-referencing). From the SRP traces obtained from the on-rate and off-rate measurements the on- and off-rate of the corresponding DARPin serum albumin interaction can be determined.
(§3) While human and cynomolgus monkey serum albumin are bound by all DARPins analyzed, rabbit, mouse, rat and dog serum albumin is only bound by a subset of these DARPins.

T1 sequence (P02768 25-609 limits assumed): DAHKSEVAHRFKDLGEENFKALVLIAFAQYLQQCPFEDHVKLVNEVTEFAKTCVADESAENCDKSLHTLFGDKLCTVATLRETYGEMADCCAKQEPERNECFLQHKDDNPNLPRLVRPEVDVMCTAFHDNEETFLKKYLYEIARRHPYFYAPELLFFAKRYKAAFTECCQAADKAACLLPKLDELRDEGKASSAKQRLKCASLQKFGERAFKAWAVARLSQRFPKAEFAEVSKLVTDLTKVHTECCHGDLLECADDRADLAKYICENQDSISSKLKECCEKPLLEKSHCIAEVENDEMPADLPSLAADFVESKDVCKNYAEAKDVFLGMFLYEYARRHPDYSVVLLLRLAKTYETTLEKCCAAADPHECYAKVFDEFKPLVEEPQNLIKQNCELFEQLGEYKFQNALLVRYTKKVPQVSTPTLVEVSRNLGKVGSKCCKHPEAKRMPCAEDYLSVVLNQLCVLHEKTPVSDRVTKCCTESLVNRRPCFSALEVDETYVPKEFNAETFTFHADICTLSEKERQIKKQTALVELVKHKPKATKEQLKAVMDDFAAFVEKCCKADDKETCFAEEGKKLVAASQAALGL

Binder	Kd [nM]
B1	15
B2	11
B3	6
B4	7
B5	27
B6	14
B7	26
B8	13
B9	30
B10	39
B11	35
B12	43
B13	96
B14	68

Biological target: T2, cynomolgus monkey serum albumin (cynomolgus monkey (macaca fascicularis), UniProt A2V9Z4 25-608)
T2 construct: also called CSA
Assay: as above
Description: as §1, §2, §3

T2 sequence (A2V9Z4 25-608 limits assumed): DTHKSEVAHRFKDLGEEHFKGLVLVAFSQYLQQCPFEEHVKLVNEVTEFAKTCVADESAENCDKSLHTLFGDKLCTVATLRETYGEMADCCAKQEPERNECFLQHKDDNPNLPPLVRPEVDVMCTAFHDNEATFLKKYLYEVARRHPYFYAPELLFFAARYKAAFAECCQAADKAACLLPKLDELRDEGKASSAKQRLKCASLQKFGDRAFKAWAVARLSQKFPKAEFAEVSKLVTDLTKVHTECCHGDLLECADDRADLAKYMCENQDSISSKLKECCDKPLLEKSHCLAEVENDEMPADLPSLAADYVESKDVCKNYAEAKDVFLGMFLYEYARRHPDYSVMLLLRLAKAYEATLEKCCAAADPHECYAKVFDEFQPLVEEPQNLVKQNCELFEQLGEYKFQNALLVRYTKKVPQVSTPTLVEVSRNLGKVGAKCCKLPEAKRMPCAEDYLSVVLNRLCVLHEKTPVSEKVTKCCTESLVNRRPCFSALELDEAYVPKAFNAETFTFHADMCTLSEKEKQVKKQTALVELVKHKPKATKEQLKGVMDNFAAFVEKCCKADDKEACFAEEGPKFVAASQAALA

Binder	Kd [nM]
B1	7
B2	6
B3	3
B4	4
B5	110
B6	63
B7	110
B8	74

Biological target: T3, mouse serum albumin (mouse, UniProt P07724 25-608)
T3 construct: also called MSA
Assay: as above
Description: as §1, §2, §3

Binder	binding result	Kd [nM]
B1	no binding (tested: up to 400 nM)	–
B2	no binding (tested: up to 400 nM)	–
B3	no binding (tested: up to 400 nM)	–
B4	no binding (tested: up to 400 nM)	–
B5	–	124
B6	–	56
B7	–	142
B8	–	68

Biological target: rat serum albumin (rat, UniProt P02770 25-608)
Assay: as above
Description: as §1, §2, §3

Chain of rat serum albumin (P02770 25-608 limits assumed): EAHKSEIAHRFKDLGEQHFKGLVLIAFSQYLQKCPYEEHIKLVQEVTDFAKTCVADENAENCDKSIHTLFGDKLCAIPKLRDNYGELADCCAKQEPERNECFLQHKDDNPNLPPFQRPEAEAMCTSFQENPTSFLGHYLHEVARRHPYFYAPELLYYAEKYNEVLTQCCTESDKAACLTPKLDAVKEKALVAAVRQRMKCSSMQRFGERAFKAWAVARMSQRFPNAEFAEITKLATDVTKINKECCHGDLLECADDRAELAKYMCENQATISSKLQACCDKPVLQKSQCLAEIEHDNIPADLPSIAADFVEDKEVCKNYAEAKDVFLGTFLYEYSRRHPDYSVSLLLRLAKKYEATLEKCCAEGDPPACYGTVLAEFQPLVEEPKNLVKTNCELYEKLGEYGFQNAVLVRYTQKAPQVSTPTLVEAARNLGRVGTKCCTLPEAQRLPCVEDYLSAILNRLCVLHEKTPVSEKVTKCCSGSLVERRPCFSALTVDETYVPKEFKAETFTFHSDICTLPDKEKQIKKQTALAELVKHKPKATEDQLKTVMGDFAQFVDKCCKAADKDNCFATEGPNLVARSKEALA

Binder	binding result	Kd [nM]
B1	no binding (tested: up to 400 nM)	–
B2	no binding (tested: up to 400 nM)	–
B3	no binding (tested: up to 400 nM)	–
B4	no binding (tested: up to 400 nM)	–
B5	–	242
B6	–	91
B7	–	266
B8	–	109

Biological target: rabbit serum albumin (rabbit, UniProt P49065 25-608)
Assay: as above
Description: as §1, §2, §3

Chain of rabbit serum albumin (P49065 25-608 limits assumed): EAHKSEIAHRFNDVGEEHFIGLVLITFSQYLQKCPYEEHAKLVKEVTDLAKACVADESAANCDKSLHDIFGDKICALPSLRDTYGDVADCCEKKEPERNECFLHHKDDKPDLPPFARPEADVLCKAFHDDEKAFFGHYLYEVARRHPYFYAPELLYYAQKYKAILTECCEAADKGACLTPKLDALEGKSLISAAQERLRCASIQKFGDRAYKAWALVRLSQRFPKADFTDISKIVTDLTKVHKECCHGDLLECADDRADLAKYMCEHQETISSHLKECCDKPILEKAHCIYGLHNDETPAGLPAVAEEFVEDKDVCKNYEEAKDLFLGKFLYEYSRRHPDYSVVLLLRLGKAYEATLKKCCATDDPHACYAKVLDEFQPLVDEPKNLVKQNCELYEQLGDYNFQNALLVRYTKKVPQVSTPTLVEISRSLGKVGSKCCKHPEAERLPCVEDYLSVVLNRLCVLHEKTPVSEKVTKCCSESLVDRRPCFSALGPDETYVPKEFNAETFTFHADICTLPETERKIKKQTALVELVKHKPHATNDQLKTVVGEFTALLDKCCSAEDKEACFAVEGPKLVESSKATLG

Binder	Kd [nM]	binding result
B1	17	–
B2	19	–
B3	9	–
B4	8	–
B5	–	no binding (tested: up to 400 nM)
B6	–	no binding (tested: up to 400 nM)
B7	–	no binding (tested: up to 400 nM)
B8	–	no binding (tested: up to 400 nM)

Biological target: dog serum albumin (dog, UniProt P49822 25-608)
Assay: as above
Description: as §1, §2, §3

Chain of dog serum albumin (P49822 25-608 limits assumed): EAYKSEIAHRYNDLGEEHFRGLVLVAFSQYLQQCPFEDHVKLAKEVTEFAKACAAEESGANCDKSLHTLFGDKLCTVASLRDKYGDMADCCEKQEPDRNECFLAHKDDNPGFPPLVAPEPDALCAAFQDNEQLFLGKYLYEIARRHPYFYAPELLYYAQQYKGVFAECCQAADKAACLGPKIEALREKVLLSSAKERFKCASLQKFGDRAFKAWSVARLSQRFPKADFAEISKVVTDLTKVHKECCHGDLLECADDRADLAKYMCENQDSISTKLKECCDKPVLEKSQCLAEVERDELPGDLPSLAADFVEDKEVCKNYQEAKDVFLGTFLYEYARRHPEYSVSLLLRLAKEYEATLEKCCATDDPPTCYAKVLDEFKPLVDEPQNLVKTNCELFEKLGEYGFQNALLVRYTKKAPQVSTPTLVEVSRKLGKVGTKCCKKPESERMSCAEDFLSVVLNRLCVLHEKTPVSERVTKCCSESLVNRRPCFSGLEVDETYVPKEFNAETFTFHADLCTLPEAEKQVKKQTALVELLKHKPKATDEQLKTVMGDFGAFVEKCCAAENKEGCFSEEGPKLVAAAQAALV

Binder	binding result	Kd [nM]
B1	no binding (tested: up to 400 nM)	–
B2	no binding (tested: up to 400 nM)	–
B3	no binding (tested: up to 400 nM)	–
B4	no binding (tested: up to 400 nM)	–
B5	–	185
B6	–	77
B7	–	180
B8	–	81
